# Experiments:
# [1] = molecular target: T1, human cationic trypsin (TRY1) p.S200A (human, UniProt P07477 24-247, p.S200A); experiment: SPR
# [2] = molecular target: human cationic trypsin (TRY1) WT (human, UniProt P07477 24-247); experiment: trypsin activity assay
# [3] = molecular target: T1, human cationic trypsin (TRY1) p.S200A; experiment: SPR; remark: listed apart in the source
koff [1],Ki [2],Kd [3],Binder
0.0002 s⁻¹,0.045 nM,0.863 nM,serine protease inhibitor Kazal-type 1 (SPINK1) p.N34S (natural protein) DSLGREAKCYSELNGCTKIYDPVCGTDGNTYPNECVLCFENRKRQTSILIQKSGPC
0.0002 s⁻¹,0.028 nM,0.8 nM,serine protease inhibitor Kazal-type 1 (SPINK1) WT (natural protein) DSLGREAKCYNELNGCTKIYDPVCGTDGNTYPNECVLCFENRKRQTSILIQKSGPC
